Test results from patent publication US20060257938A1, “Method of screening for drugs that block ligand binding to a lipid binding protein” (priority 2005, published 2006).
Changes are numbered by the printed parent chain.

B1: 23V, 72A (protein, listed as Rattus norvegicus)
chain: AFDGTWKVDRNENYEKFMEKMGVNVVKRKLGAHDNLKLTITQEGNKFTVKESSNFRNIDVVFELGVDFAYSAADGTELTGTWTMEGNKLVGKFKRVDNGKELIAVREISGNELIQTYTYEGVEAKRIFKKE
modifications: PEPTIDE (1)...(131) wild-type rat intestinal fatty acid binding protein
B2: 40M, 72A (protein, listed as Rattus norvegicus)
chain: B1 chain with V23I, I40M
modifications: PEPTIDE (1)...(131) wild-type rat intestinal fatty acid binding protein
B3: 115W, 72A (protein, listed as Rattus norvegicus)
chain: B1 chain with V23I, Q115W
modifications: PEPTIDE (1)...(131) wild-type rat intestinal fatty acid binding protein
B4: 104S, 72A (protein, listed as Rattus norvegicus)
chain: B1 chain with V23I, A104S
modifications: PEPTIDE (1)...(131) wild-type rat intestinal fatty acid binding protein
B5: 106F, 72A (protein, listed as Rattus norvegicus)
chain: B1 chain with V23I, R106F
modifications: PEPTIDE (1)...(131) wild-type rat intestinal fatty acid binding protein
B6: 119L, 72A (protein, listed as Rattus norvegicus)
chain: B1 chain with V23I, Y119L
modifications: PEPTIDE (1)...(131) wild-type rat intestinal fatty acid binding protein
B7: 38Y 72G 117M (protein, listed as Rattus norvegicus)
chain: B1 chain with V23I, L38Y, A72G, Y117M
modifications: PEPTIDE (1)...(131) wild-type rat intestinal fatty acid binding protein
B8: 11Q, 72A (protein, listed as Rattus norvegicus)
chain: B1 chain with N11Q, V23I
modifications: PEPTIDE (1)...(131) wild-type rat intestinal fatty acid binding protein
B9: 40V, 72A (protein, listed as Rattus norvegicus)
chain: B1 chain with V23I, I40V
modifications: PEPTIDE (1)...(131) wild-type rat intestinal fatty acid binding protein
B10: 14L 38I 72A (protein, listed as Rattus norvegicus)
chain: B1 chain with Y14L, V23I, L38I
modifications: PEPTIDE (1)...(131) wild-type rat intestinal fatty acid binding protein
B11: 91Y, 72A (protein, listed as Rattus norvegicus)
chain: B1 chain with V23I, G91Y
modifications: PEPTIDE (1)...(131) wild-type rat intestinal fatty acid binding protein
B12: 31W, 72A (protein, listed as Rattus norvegicus)
chain: B1 chain with V23I, G31W
modifications: PEPTIDE (1)...(131) wild-type rat intestinal fatty acid binding protein
B13: 18K, 72A (protein, listed as Rattus norvegicus)
chain: B1 chain with M18K, V23I
modifications: PEPTIDE (1)...(131) wild-type rat intestinal fatty acid binding protein
B14: 126K, 72A (protein, listed as Rattus norvegicus)
chain: B1 chain with V23I, R126K
modifications: PEPTIDE (1)...(131) wild-type rat intestinal fatty acid binding protein
B15: 18L, 72A (protein, listed as Rattus norvegicus)
chain: B1 chain with M18L, V23I
modifications: PEPTIDE (1)...(131) wild-type rat intestinal fatty acid binding protein
B16: 49M, 72A (protein, listed as Rattus norvegicus)
chain: B1 chain with V23I, V49M
modifications: PEPTIDE (1)...(131) wild-type rat intestinal fatty acid binding protein
B17: 38G, 72A (protein, listed as Rattus norvegicus)
chain: B1 chain with V23I, L38G
modifications: PEPTIDE (1)...(131) wild-type rat intestinal fatty acid binding protein
B18: 21D, 72A (protein, listed as Rattus norvegicus)
chain: B1 chain with M21D, V23I
modifications: PEPTIDE (1)...(131) wild-type rat intestinal fatty acid binding protein
B19: 70H, 72A (protein, listed as Rattus norvegicus)
chain: B1 chain with V23I, Y70H
modifications: PEPTIDE (1)...(131) wild-type rat intestinal fatty acid binding protein
B20: 70S, 72A (protein, listed as Rattus norvegicus)
chain: B1 chain with V23I, Y70S
modifications: PEPTIDE (1)...(131) wild-type rat intestinal fatty acid binding protein
B21: 70W, 72A (protein, listed as Rattus norvegicus)
chain: B1 chain with V23I, Y70W
modifications: PEPTIDE (1)...(131) wild-type rat intestinal fatty acid binding protein
B22: 72A 117A (protein, listed as Rattus norvegicus)
chain: B1 chain with V23I, Y117A
modifications: PEPTIDE (1)...(131) wild-type rat intestinal fatty acid binding protein
B23: 73Y, 72A (protein, listed as Rattus norvegicus)
chain: B1 chain with V23I, A73Y
modifications: PEPTIDE (1)...(131) wild-type rat intestinal fatty acid binding protein

test: Probe fluorescence ratio response to palmitic acid relative to ADIFAB2; format: binding; conditions: response relative to ADIFAB2
Outline: (§1)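 Fluorescently labeled rat intestinal FABP variants were read at two emission wavelengths, near the unbound maximum (about 420 to 480 nm) and the FFA-bound maximum (about 495 to 580 nm). R = Fλ1/Fλ2 after subtracting probe-free intensity; ΔR = R+agent − R0, normalized to ADIFAB2 (rI-FABP-L72A).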

Molecule | DR/DR PA
B1 | 1.475
B2 | 0.691
B3 | 0.805
B4 | 1.570
B5 | 0.369
B6 | 0.661
B7 | 0.574
B8 | 1.450
B9 | 0.867
B10 | 0.712
B11 | 0.870
B12 | 0.618
B13 | 0.544
B14 | 0.356
B15 | 1.090
B16 | 0.939
B17 | 0.447
B18 | 0.707
B19 | 0.567
B20 | 0.416
B21 | 0.212
B22 | 0.433
B23 | 0.982

test: Probe fluorescence ratio response to arachidonic acid relative to ADIFAB2; format: binding; conditions: arachidonic acid; response relative to ADIFAB2
Outline: as §1

Molecule | DR/DR AA
B1 | 1.464
B2 | 0.993
B3 | 1.483
B4 | 1.638
B5 | 0.754
B6 | 1.021
B7 | 1.541
B8 | 1.525
B9 | 1.013
B10 | 1.046
B11 | 1.273
B12 | 0.993
B13 | 0.800
B14 | 0.625
B15 | 1.490
B16 | 1.363
B17 | 0.996
B18 | 1.301
B19 | 0.751
B20 | 0.625
B21 | 0.349
B22 | 1.480
B23 | 1.529

test: Probe fluorescence ratio response to linoleic acid relative to ADIFAB2; format: binding; conditions: response relative to ADIFAB2
Outline: as §1

Molecule | DR/DR LA
B1 | 1.731
B2 | 1.086
B3 | 1.486
B4 | 1.715
B5 | 0.812
B6 | 1.134
B7 | 1.233
B8 | 1.715
B9 | 1.057
B10 | 1.090
B11 | 1.415
B12 | 1.147
B13 | 0.967
B14 | 1.039
B15 | 1.596
B16 | 1.370
B17 | 1.003
B18 | 1.562
B19 | 0.929
B20 | 0.794
B21 | 0.451
B22 | 1.193
B23 | 1.711

test: Probe fluorescence ratio response to oleic acid relative to ADIFAB2; format: binding; conditions: response relative to ADIFAB2
Outline: as §1

Molecule | DR/DR OA
B1 | 1.561
B2 | 0.990
B3 | 1.352
B4 | 1.663
B5 | 0.815
B6 | 0.778
B7 | 1.137
B8 | 1.716
B9 | 1.002
B10 | 0.653
B11 | 1.706
B12 | 0.868
B13 | 0.803
B14 | 0.631
B15 | 1.551
B16 | 1.296
B17 | 0.945
B18 | 1.345
B19 | 0.836
B20 | 0.727
B21 | 0.381
B22 | 1.080
B23 | 1.537

test: Probe fluorescence ratio response to linolenic acid relative to ADIFAB2; format: binding; conditions: response relative to ADIFAB2
Outline: as §1

Molecule | DR/DR LNA
B1 | 1.351
B2 | 1.021
B3 | 1.396
B4 | 1.538
B5 | 0.706
B6 | 1.053
B7 | 1.228
B8 | 1.582
B9 | 1.059
B10 | 1.177
B11 | 1.626
B12 | 1.031
B13 | 0.925
B14 | 1.017
B15 | 1.544
B16 | 1.369
B17 | 0.992
B18 | 1.478
B19 | 0.886
B20 | 0.703
B21 | 0.385
B22 | 0.689
B23 | 1.603
